Laboratory results reported in patent US20190241662A1 (ADAGENE, published 2019).

T1: full-length human CTLA4 expressed on cells (human, UniProt P16410 36-223)
T1 construct: whole, on cells; also called HEK293F/hCTLA-4 cells; HEK293F/hCTLA4 cells
T1 sequence (looked up): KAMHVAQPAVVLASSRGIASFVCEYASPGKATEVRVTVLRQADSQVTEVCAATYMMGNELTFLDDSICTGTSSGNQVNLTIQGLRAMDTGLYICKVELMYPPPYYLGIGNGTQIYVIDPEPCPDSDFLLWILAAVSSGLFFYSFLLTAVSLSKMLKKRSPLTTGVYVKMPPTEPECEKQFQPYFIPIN

T2: human LAG3 on HEK293F cells (human, UniProt P18627 23-525)
T2 construct: whole, on cells
T2 sequence (looked up): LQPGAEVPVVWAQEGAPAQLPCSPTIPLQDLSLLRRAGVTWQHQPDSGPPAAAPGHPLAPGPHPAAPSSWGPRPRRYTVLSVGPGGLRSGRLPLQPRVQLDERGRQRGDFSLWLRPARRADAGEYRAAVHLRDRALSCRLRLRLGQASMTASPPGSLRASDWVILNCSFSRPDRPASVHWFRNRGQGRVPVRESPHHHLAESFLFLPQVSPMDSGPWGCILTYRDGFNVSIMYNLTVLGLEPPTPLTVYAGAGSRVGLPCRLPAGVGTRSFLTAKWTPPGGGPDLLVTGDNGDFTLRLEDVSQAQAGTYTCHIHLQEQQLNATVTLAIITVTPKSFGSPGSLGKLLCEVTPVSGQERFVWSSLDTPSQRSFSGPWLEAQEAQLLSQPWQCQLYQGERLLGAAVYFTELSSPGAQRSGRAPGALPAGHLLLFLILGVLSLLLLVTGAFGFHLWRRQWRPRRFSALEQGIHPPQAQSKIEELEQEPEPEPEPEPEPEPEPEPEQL

T3: human TNFR1 on HEK293F cells (human, UniProt P19438 30-455)
T3 construct: whole, on cells; also called CD120a
T3 sequence (looked up): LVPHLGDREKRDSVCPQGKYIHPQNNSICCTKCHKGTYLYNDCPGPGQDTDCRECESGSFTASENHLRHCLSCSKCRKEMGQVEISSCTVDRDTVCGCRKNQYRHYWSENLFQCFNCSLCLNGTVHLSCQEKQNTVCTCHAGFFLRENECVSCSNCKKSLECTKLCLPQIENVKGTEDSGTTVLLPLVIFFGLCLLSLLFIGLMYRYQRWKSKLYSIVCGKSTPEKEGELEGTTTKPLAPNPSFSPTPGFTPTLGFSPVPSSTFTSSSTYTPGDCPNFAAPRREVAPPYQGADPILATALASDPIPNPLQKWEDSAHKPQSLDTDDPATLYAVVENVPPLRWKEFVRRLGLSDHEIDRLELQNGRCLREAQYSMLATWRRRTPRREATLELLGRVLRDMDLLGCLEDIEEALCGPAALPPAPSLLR

T4: human OX40 on HEK293F cells (human, UniProt P43489 29-277)
T4 construct: whole, on cells
T4 sequence (looked up): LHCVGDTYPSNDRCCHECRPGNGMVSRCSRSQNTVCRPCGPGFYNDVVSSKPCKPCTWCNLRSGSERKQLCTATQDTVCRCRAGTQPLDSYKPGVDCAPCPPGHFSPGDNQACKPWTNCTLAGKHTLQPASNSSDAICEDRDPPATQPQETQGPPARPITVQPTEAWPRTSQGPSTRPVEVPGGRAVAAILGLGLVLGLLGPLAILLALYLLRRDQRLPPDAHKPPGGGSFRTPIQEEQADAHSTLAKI

T5: human CD95 on HEK293F cells (human, UniProt P25445 26-335)
T5 construct: whole, on cells
T5 sequence (looked up): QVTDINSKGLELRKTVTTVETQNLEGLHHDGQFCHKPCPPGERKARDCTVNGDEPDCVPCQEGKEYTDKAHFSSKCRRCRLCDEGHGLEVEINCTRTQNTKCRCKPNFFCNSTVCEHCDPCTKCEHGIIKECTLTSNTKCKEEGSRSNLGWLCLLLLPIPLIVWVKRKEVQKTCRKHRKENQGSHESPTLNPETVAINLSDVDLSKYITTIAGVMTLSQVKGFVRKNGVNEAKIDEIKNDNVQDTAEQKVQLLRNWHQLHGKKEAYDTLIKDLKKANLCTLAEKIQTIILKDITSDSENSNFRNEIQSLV

B1: TY21687 (antibody, V domains shown)
VH: EVQLVESGGGLVQPGGSLRLSCAASGFTFSGYAIHWVRQAPGKGLEWIGIISPSGGGTKYAQKFQGRVTISRDNSKNTLYLQLNSLRAEDTAVYYCARHPFAYWGQGTLVTVSS
VL: DIQLTQSPSSLSASVGDRVTITCRASQSVDFYGISFLDWYQQKPGKAPKLLIYDASNRATGIPSRFSGSGSGTDFTLTISSLQPEDFATYYCQQYVSSPPEYTFGQGTKVEIK
notes: human IgG1 (hIgG1) from Fab hit B15700
B2: TY21591 (antibody, V domains shown)
VH: EVQLVESGGGLVQPGGSLRLSCAASGFSLSTGGVAVSWIRQAPGKGLEWIGEIYHSGSTYYSPSLKSRVTISRDNSKNTLYLQLNSLRAEDTAVYYCARRIATATYFDYWGQGTLVTVSS
VL: DIQLTQSPSSLSASVGDRVTITCRASQTVFSRYLAWYQQKPGKAPKLLIYDASNRATGIPSRFSGSGSGTDFTLTISSLQPEDFATYYCQQSYYWPPWTFGQGTKVEIK
notes: human IgG1 (hIgG1) from Fab hit B15756

Key:
[1] = molecular target: T1, full-length human CTLA4 expressed on …; experiment: flow cytometry, transfected HEK293F cells, antibody concentration not printed [Cont.]
Protocol: (§1) The affinities of the antibodies were also assessed against human and mouse CTLA4 transiently expressed on the surface of HEK293F cells (FIG. 2). Briefly, HEK293F cells were transfected with a plasmid expressing full-length human, monkey or mouse CTLA4 from a bicistronic IRES vector also encoding EGFP, and EGFP expression was used to identify the transfected cells. After 48 hours, the mammalian cell suspension (2×10⁵/well) was transferred to an Eppendorf tube, centrifuged, the supernatant was discarded, the cells were resuspended with 1 mL PBSA (to a density is 4×10⁶ cells/mL), and added to a 96 well plate. […] The cells were then washed once prior to analysis by flow cytometry (Beckman® CytoFlex).

[2] = molecular target: T6, full-length mouse CTLA4 expressed on HEK293F cells (mouse, UniProt P09793 36-223); experiment: as above
T6 construct: whole, on cells
Protocol: as §1

[3] = molecular target: T7, human PD1 on HEK293F cells (human, UniProt Q15116 25-288); experiment: flow cytometry, transfected HEK293F cells [Cont.]
T7 construct: whole, on cells
T7 sequence (Q15116 25-288): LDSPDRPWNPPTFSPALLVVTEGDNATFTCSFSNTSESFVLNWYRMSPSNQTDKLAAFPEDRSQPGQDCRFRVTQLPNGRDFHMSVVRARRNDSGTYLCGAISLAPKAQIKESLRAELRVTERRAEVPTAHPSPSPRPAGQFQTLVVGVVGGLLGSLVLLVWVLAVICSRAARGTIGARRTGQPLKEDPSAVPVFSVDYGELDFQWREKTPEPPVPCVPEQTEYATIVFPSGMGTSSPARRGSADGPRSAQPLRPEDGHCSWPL
Protocol: (§2) Antibody selectivity was next examined. Human CTLA4, PD1, LAG3, Tim3, B7H3, CD95, TNFR1, OX40, CD40, PD-L1, BLTA, VISTA, PDL2, ICOS and B7H4 were transiently overexpressed on the surface of HEK293F cells. Transfected cells were washed in pre-chilled 1×PBSA buffer (1.76 mM KH2PO4, 10.14 mM Na2HPO4.12H2O, 2.68 mM KCl, 136.89 mM NaCl and 1% BSA), then incubated with 100 nM test antibodies for 1 hour on ice. Cells were washed once with staining buffer, and Alexa Fluor® 647 conjugated mouse anti-human FC antibodies were added and incubated for 30 minutes on ice, protected from light. Samples were washed once with staining buffer prior to analysis by flow cytometry.

[4] = molecular target: T2, human LAG3 on HEK293F cells; experiment: flow cytometry, transfected HEK293F cells [Cont.]
Protocol: as §2

[5] = molecular target: T2, human LAG3 on HEK293F cells; experiment: flow cytometry, transfected HEK293F cells, 100 nM antibody [Cont.]
Protocol: as §2

[6] = molecular target: T3, human TNFR1 on HEK293F cells; experiment: flow cytometry, transfected HEK293F cells [Cont.]
Protocol: as §2

[7] = molecular target: T4, human OX40 on HEK293F cells; experiment: flow cytometry, transfected HEK293F cells [Cont.]
Protocol: as §2

[8] = molecular target: T5, human CD95 on HEK293F cells; experiment: flow cytometry, transfected HEK293F cells [Cont.]
Protocol: as §2

| Binder | % of cells in upper right quadrant (Q2) [1] | Mean [1] | % of cells in upper right quadrant (Q2) [2] | Mean [2] | binding result [3] | binding result [4] | % of cells in upper right quadrant (Q2) [5] [%] | binding result [6] | binding result [7] | binding result [8] |
| --- | --- | --- | --- | --- | --- | --- | --- | --- | --- | --- |
| B1 | 50.4 | 433000 | 33.4 | 633000 | no binding (tested: 100 nM) | no binding (tested: 100 nM) | 1.31 |  |  |  |
| B2 |  |  |  |  |  |  |  | no binding (tested: 100 nM) | no binding (tested: 100 nM) | no binding (tested: 100 nM) |
